These are literature values, as cited in publication PMC6959264.

Data set [1] addresses Asp74 (UniProt position 74, WARYIDWVITT). The note with it: original (unphotolyzed, dark) state implied.
Data set [2] deals with Asp212 (UniProt position 225, LFMVLDVSAKV).
The target of data set [3] is Asp85 (UniProt position 98, WARYADWLFTT).
The target in data set [4] is Asp96 (UniProt position 109, PLLLLDLALLV).

Some results are limits rather than exact numbers.

For the substance “Rubrobacter xylanophilus rhodopsin (RxR) (Rubrobacter xylanophilus (DSM 9941))”, in data set [1], the pKa is recorded as 1.3.

For the substance “Bacteriorhodopsin (BR) (Halobacterium salinarum)”, the pKa in data set [2] was <2.5; in data set [3], 2.6; in data set [4] it was >12.0.

Broadly, the pKa is the negative logarithm of the acid dissociation constant.
